# Reference: patent US20090092595A1, “Suppression of sPLA2-integrin binding for treating an inflammatory condition” (REGENTS OF THE UNIVERSITY OF CALIFORNIA, priority 2007, published 2009)
# Tests used:
# [1] = biological target: T1, integrin α4β1 (Homo sapiens, UniProt P05556+P13612); test: Adhesion of α4-K562 cells (recombinant α4β1) to immobilized sPLA2-IIA; format: cell-based; settings: compared with mock-transfected K562 cells
# T1 construct: K562 cells have endogenous α5β1; expressed in transfected cells; host or cells: K562
# Description: (§1) FIG. 5. sPLA2-IIA binding to integrin α4β1. a) Cells expressing recombinant α4β1 adhered to wt sPLA2-IIA better than cells expressing other recombinant integrins. We used transfected K562 cells clonally express different human integrins for adhesion assays. Low background adhesion to BSA was subtracted. […] Wells of 96-well microtiter plate were coated with VCAM-1 and FN-GST, and incubated with U937 cells (1×10^4 cells/plate) in the presence of the increasing concentrations of sPLA2-IIA for 1 h at 37° C. Adherent cells were quantified using endogenous phosphatase after gently rinsing the well to remove unbound cells. Data is shown as means+/−SEM of triplicate experiments. *P=0.0101 and **P<0.0001 by t-test. c) Amino acid sequence in the α4 subunit that is critical for VCAM-1 and CS-1 binding is also critical for sPLA2-IIA binding. CHO cells that clonally express wt or mutant α4 (Irie, A. et al., Embo J, 14(22): 5550-5556 (1995)) were used for adhesion assays. Data is shown as means+/−SEM of triplicate experiments. Similar results were obtained using K562 cells expressing α4 mutants (not shown).
# (§2) Other methods We performed docking simulation of interaction between sPLA2-IIA and integrin αvβ3 using the AutoDock3 as previously described (Mori, S. et al., J Biol Chem, in press (2008)). […]
# [2] = system: mutant α4 subunit (Tyr-189 and Gly-190 to Ala); test: Adhesion of CHO cells expressing wt or mutant α4 to sPLA2-IIA; format: cell-based
# Description: as §1, §2
# [3] = system: mock-transfected K562 cells; test: Proliferation of mock-transfected K562 cells (MTS assay); format: cell-based, human; settings: serum-starved 48 h, stimulated 48 h
# Description: Cells were serum-starved for 48 h and stimulated with sPLA2-IIA for 48 h. Cell proliferation was determined by MTS assays. Data is shown as means+/−SEM of triplicate experiments. α4- and αvβ3-K562 cells proliferated faster than mock-K562 cells. […] Serum-starved cells were stimulated with wt or mutant sPLA2-IIA (0.5 μg/ml) for 48 h. Data is shown as means+/−SEM of triplicate experiments. α4-K562 and αvβ3-K562 cells grew faster than mock K562 cells with wt and H47Q sPLA2-IIA (*P<0.05 by t-test).
# (§3) Cell proliferation and MAP kinase activation K562 cells and human monocytic lymphoma U937 cells were maintained in RPM11640 medium supplemented with 10% FCS. Cells were plated in 96-well plates (1×10^4 cells/well), and serum-starved for 48 h at 37° C. in 5% CO2 atmosphere. Cells were then treated with or without sPLA2-IIA in medium without serum for 48 h. Cell proliferation was determined by MTS assays using the Aqueous Cell Proliferation Assay Kit (Promega). For MAP kinase activation assays, cells were serum starved in RPMI1640 medium supplemented with 0.4% FCS for 24 h, and stimulated with Wt and mutant sPLA2-IIA (0.5 μg/ml) for 10 min at 37° C. ERK1/2 activation was measured as described (Mori, S. et al., J Biol Chem, in press (2008)).
# [4] = system: ERK1/2; test: MAP kinase (ERK1/2) activation in U937 cells, western blotting; format: cell-based, human; settings: 0.5 μg/ml, 10 min, 37° C.
# Description: (§4) U937 cells (αvβ3+, α4β1+) were plated in wells of 96-well plates (10,000 cells/well), and serum-starved for 48 h. After treatment with wt or mutant sPLA2-IIA for 48 h, we measured cell proliferation by MTS assays. […] U937 cells were serum-starved for 24 h, and stimulated with wt and mutant sPLA2-IIA (0.5 μg/ml) for 10 min at 37° C. Cell lysates were analyzed by western blotting with anti-phospho ERK1/2 or anti-ERK1/2 antibodies. The blot is representative of three independent experiments.
# as §3
# [5] = biological target: T2, integrin αvβ3 (Homo sapiens, UniProt P05106+P06756); test: Surface plasmon resonance study of sPLA2-IIA binding to immobilized soluble integrin αvβ3; settings: SPR, soluble αvβ3 immobilized on sensor chip, 1 mM Mn2+; listed as human sPLA2-IIA
# T2 construct: Recombinant soluble αvβ3 was synthesized as previously described; made in house
# Description: Surface plasmon resonance study Recombinant soluble integrin αvβ3 was immobilized to Biacore Sensor chip CM5 (Biacore, Piscataway, N.J.) by the standard amine coupling method. Two-fold serial diluted sPLA2-IIA and its mutants R74E/R100E (ranging from 2 nM to 500 pM) and H47Q (ranging from 4 nM to 1 nM) in running buffer HBS-P buffer containing 1 mM of Mn^2+ were injected for 3 min at the flow rate of 50 μL/min. Then the sensor chip was washed with the running buffer alone at the same flow rate for another 5 min (the dissociation phase). Two consecutive one-minute injections of 0.5 M, pH 8 EDTA solution at the same flow rate were used to regenerate the chip for another cycle of injection. The resonance unit elicited from the reference flow cell was subtracted from the resonance unit elicited from the integrin flow cell to eliminate the non-specific protein-flow cell interaction and the bulk refractive index effect. The recorded binding curves were fitted with the “1:1 binding with drifting baseline model” by using the Biaevaluation Version 4.1.
# [6] = system: U937 human monocytic lymphoma cells; test: Proliferation of U937 cells (MTS assay); format: cell-based; settings: serum-starved 48 h, treated 48 h
# Description: as §4, §3
# [7] = system: fibronectin domains 8-11; test: Adhesion of U937 cells to the cell-binding domain of fibronectin in the presence of sPLA2-IIA; format: cell-based, human; settings: increasing concentrations of sPLA2-IIA, 1 h, 37° C.
# Description: as §1, §2
# T1 sequence (P13612 34-1032): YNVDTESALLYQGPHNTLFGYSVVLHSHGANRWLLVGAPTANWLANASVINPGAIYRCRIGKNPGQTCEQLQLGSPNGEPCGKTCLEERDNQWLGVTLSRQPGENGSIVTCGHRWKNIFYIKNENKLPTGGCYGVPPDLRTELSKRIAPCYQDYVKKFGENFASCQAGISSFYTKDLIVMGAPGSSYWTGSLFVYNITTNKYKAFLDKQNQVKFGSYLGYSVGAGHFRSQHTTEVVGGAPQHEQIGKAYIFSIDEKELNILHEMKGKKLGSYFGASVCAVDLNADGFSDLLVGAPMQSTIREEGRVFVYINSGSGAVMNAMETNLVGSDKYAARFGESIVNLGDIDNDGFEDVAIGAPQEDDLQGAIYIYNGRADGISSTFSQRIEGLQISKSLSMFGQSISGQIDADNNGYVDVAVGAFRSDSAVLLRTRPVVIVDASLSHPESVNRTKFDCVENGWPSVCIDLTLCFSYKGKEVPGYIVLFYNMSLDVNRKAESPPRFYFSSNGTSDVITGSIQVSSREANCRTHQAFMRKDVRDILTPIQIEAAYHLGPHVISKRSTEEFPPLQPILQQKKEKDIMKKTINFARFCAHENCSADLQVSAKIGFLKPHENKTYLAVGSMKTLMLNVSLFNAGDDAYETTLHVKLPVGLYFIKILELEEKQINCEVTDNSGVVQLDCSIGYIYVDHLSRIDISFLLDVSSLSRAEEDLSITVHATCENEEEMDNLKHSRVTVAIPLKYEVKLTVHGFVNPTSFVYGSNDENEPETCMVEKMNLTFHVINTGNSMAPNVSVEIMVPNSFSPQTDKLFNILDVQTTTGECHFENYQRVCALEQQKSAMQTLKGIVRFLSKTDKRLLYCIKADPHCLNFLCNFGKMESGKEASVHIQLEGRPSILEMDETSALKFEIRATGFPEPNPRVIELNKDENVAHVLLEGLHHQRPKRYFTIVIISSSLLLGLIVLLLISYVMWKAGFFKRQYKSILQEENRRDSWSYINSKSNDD
# T1 sequence (P05556 21-798): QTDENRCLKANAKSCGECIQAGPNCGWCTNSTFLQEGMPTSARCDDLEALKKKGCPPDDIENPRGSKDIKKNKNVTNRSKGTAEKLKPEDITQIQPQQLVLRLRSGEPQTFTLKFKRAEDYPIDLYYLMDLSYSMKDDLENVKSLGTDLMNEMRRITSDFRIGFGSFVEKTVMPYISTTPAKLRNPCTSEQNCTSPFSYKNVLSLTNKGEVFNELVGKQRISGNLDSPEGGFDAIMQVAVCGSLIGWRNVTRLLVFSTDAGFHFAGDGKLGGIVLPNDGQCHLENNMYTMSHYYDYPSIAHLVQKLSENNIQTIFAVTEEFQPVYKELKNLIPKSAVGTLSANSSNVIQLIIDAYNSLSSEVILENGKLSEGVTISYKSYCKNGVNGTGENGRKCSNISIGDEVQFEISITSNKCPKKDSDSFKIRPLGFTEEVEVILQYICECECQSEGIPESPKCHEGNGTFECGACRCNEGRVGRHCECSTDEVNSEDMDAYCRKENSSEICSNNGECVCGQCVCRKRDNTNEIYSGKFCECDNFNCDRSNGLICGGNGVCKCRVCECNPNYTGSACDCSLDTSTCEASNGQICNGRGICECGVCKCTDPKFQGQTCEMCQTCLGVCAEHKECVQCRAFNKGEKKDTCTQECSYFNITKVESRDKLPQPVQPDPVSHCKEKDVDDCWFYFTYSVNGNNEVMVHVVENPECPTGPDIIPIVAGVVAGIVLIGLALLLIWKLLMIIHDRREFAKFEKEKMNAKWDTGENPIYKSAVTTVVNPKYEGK
# T2 sequence (P06756 31-992 limits assumed): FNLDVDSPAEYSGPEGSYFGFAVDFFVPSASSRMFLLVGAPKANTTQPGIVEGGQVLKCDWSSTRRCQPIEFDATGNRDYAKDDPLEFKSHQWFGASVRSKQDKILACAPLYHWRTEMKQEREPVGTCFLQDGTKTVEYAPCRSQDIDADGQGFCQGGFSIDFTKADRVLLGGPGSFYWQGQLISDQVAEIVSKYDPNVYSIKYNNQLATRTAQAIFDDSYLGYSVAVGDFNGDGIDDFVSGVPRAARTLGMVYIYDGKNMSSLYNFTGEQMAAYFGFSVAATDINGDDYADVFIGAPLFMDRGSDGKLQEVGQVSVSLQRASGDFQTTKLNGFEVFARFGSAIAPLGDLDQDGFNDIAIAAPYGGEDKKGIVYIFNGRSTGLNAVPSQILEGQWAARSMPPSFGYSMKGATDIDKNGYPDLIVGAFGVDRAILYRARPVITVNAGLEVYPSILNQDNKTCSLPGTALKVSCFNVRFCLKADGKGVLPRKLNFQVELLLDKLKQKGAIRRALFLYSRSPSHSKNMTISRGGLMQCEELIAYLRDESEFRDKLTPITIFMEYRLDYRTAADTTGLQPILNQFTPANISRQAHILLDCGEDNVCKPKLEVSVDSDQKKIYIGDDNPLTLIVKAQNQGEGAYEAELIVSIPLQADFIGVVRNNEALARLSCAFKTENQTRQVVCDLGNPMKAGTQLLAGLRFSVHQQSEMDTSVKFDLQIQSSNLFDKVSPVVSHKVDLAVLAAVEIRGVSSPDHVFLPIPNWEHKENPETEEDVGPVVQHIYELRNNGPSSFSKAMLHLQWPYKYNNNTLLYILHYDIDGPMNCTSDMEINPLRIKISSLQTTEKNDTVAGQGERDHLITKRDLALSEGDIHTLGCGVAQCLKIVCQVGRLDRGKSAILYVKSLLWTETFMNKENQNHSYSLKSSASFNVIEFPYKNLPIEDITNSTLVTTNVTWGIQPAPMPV
# T2 sequence (P05106 27-718 limits assumed): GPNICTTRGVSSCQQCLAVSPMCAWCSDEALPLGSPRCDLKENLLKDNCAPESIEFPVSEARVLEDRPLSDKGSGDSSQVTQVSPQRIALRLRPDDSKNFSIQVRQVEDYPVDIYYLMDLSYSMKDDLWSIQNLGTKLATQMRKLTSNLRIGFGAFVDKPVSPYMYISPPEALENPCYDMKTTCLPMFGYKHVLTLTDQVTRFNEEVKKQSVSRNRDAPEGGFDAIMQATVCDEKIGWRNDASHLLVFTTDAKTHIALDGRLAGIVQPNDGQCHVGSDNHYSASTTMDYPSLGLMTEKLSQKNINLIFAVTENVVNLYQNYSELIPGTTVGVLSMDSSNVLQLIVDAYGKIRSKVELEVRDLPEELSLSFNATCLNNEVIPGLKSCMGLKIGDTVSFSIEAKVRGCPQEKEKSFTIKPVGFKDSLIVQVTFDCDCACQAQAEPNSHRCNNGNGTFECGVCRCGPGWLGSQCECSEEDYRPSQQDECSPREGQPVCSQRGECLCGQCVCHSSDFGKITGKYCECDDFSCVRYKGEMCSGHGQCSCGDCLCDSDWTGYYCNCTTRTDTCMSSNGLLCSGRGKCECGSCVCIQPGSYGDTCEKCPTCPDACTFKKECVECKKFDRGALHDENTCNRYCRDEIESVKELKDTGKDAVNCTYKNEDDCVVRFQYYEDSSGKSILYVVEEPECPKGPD
molecule,measurement,setting,value
"wt sPLA2-IIA: Secretory phospholipase A2 group IIA, wild type, recombinant from bacteria BL21, refolded (protein, left off: small tags and cut ends) NLVNFHRMIKLTTGKEAALSYGFYGCHCGVGGRGSPKDATDRCCVTHDCCYKRLEKRGCGTKFLSYKFSNSGSRITCAKQDSCRSQLCECDKAAATCFARNKTTYNKKYQYYSNKHCRGSTPRC",adhesion of α4-K562 cells to immobilized wt sPLA2-IIA,[1],better than mock-transfected K562 cells
same,binding of α4 mutants (Tyr-189 and Gly-190 to Ala) to sPLA2-IIA,[2],blocked binding
same,proliferation of mock-transfected K562 cells,[3],did not induce proliferation
same,ERK1/2 activation in U937 cells,[4],induced
same,Kd,[5],200 nM
same,proliferation of monocytic U937 cells,[6],induced robust proliferation
same,cell adhesion to fibronectin domains 8-11,[7],did not suppress cell adhesion
